Article PMC4365481

Key:
GST-α-actinin R4 = GST-α-actinin R4 (UniProt P05094); assay: ELISA; conditions: ICAM-5 cytoplasmic domains coated on plates and incubated with GST-α-actinin rod domains; values normalized to the level of BSA binding; parent: est. 0.020; read off a plot
GST-α-actinin R3 = assay: ELISA; conditions: ICAM-5 cytoplasmic domains coated on plates and incubated with GST-α-actinin rod domains; values normalized to the level of BSA binding; parent: est. 0.072; read off a plot
[1] = biological target: GST-α-actinin R1-R4 (the whole rod domain) (UniProt P05094); assay: ELISA; conditions: ICAM-5 cytoplasmic domains coated on plates and incubated with GST-α-actinin rod domains; values normalized to the level of BSA binding; parent: est. 0.28; read off a plot
GST-α-actinin R2 [2] = biological target: GST-α-actinin R2 (UniProt P05094); assay: ELISA; conditions: ICAM-5 cytoplasmic domains coated on plates and incubated with GST-α-actinin rod domains; values normalized to the level of BSA binding; parent: est. 0.22; read off a plot
GST-α-actinin R1 = assay: ELISA; conditions: ICAM-5 cytoplasmic domains coated on plates and incubated with GST-α-actinin rod domains; values normalized to the level of BSA binding; parent: est. 0.10; read off a plot
GST-α-actinin R2 [3] = biological target: GST-α-actinin R2 (UniProt P05094); assay: pull-down; competition: 2 µg GST-α-actinin R2 on glutathione-sepharose, cross-linked with dimethyl pimelimidate; 1 ml of 250 nM His6-GluN1 cytoplasmic domain with increasing amounts of ICAM-5 cytoplasmic domain, RT 1 h; bound His6-GluN1 by western blotting, band intensities fitted to an exponential decay …

UniProt P05094, sequence (P05094 387-510): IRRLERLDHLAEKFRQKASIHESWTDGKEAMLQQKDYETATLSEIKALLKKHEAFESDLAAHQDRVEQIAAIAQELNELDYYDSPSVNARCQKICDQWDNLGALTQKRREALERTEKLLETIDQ

Row | response (GST-α-actinin R4) | response (GST-α-actinin R3) | response [1] | response (GST-α-actinin R2 [2]) | response (GST-α-actinin R1) | IC50 (GST-α-actinin R2 [3]) | Substance
1 | 0.022 A492 | 0.02 A492 | 0.015 A492 | 0.015 A492 | 0.035 A492 | – | ICAM-5 cytoplasmic domain (WT) (from UniProt Q9UMF0) K857A; K858A
2 | – | – | – | – | – | 0.055 µM | ICAM-5 cytoplasmic domain (WT) (from UniProt Q9UMF0 857-924) (domain or fragment)
